Laboratory results from patent US20240218054A1 (MABLOC, published 2024).

B1: ADI-42787 (antibody, V domains shown)
VH: EVQLVESGGGVVQSGRSLRLSCAASGFTFSGNAMHWVRQAPGKGLEWVAVILYDGSNQYYADSVKGRFTISRDNSKNTLYLQMNSLRPADTAVYYCARASMMPRPPVHDYWGQGTLVTVSS
VL: DIRVTQSPATLSVSPGERATLSCRASQRVNSNLAWYQQKPGQAPRLLIYGASTRATGIPVRFSGSGSGTEFTLTISSLQSEDFAVYYCQQYNTWWTFGQGTKVEIK
notes: full-length IgG; also called Antibody Number 87
B2: ADI-45136 (antibody, V domains shown)
VH: EVQLVESGGGVVRPGRSLRLSCAASGFTFSSYGMHWVRQAPGKGLEWVAVIRFDGSNTVYADSVKGRFTISRDNSKNTLYLQMNSLRAEDTAVYYCAKTYDSNAYYYLDYWGQGTLVTVSS
VL: DIVMTQTPSTLSASVGDRVTVTCRASQSISDWLAWYQQKAGKAPKLLIYRASSLESGVPPRFSGSGSGTEFTLTISSLRPDDFATYYCQQYNRYPYTFGQGTKVDIK
notes: full-length IgG; also called Antibody Number 80
B3: ADI-49162 (antibody, V domains shown)
VH: EVQLVESGGTFLQPGGSLRLSCVASGFTFGTHAMSWVRQAPGKGLEWVSTFSGSGGRTYYADSVKGRFTISRDNSKSTLYLEMSALRAEDTAVYYCAKFYDSSGYYYFDYWGQGTLVTVSS
VL: DIQLTQSPSTLSASVGDRVTVTCRASQNVGGWLAWYQQKPGKAPKLLIFQASRLENGVPSRFSANASGTEFTLTIGSLQPDDFATYYCQQYNTYPYTFGQGTKVDIK
notes: full-length IgG; also called Antibody Number 83
B4: ADI-48435 (antibody, V domains shown)
VH: QVQLVQSGAEVKKPGASVKVSCKASGYTFTSYGISWVRQAPGQGLEWMGWISAYNGNTNYAQKLQGRVTMTTDTSTSTAYMELRSLRSDDTAVYYCARRGTTVTRFGVIQYYYGMDVWGQGTTVTVSS
VL: QSVLTQPASVSGSPGQSITISCTGTSSDVGGYNYVSWYQQHPGKAPKLMIYDVSNRPSGVSNRFSGSKSGNTASLTISGLQAEDEADYYCSSYTSSSTLVFGGGTQLTVL
notes: full-length IgG; also called Antibody Number 85
B5: ADI-49168 (antibody, V domains shown)
VH: EVQLLESGGGLVQPGGSLRLSCAASGFTFSSYAMSWVRQATGRGLEWVSSIRSSGGRTEYADSVKGRFTISRDNSKNTLYLQMDSLRAEDTALYYCAKHYDSSGYYYEDYWGQGTLVTVSS
VL: DIVLTQSPSTLSASVGDRVTITCRASQSISDWLAWYQQKPGKAPGLLIYRASGLESGVPSRFSGSGSGTEFTLTISSLQPDDFATYYCHQYKDFPWTFGQGTKVDIK
notes: full-length IgG; also called Antibody Number 73
B6: ADI-49145 (antibody, V domains shown)
VH: EVQLLESGGGLVQPGGSLRLSCAASGFIFSDYYMDWVRQTPGKGPEWVGRITNRPNSYTTEYAASVKGRFTISRDDSTNSLFLHMNSLKTEDTAVYYCTRITGDRYWYLDLWGRGTLVTVSS
VL: DIVLTQSPSSLSASVGDRVTITCRASQSINNYLNWYQQKPGKAPNLLIFGASTLQSGVPSRFTGSGSGTVFTLTISSLQRDDFVIYYCQQTYSASGSFGQGTKVEIK
notes: full-length IgG; also called Antibody Number 69
B7: ADI-49561 (antibody, V domains shown)
VH: EVQLLESGGGVVQPGRSLRLSCVASGFTFSSYGMHWVRQAPGKGLEWVALISYDGSNKYYADSVKGRFTISRDNSKNTLYLQMNSLRAEDTAVYYCAKDQCGGDCTADYWGQGTLVTVSS
VL: QSVLTQPASVSGSPGQSITISCTGTSSDVGGDKYVSWYQQHPGKAPKPMIYEVSNRPSGVSNRFSGSKSGNTASLTISGLQAEDEADYYCSSYTSSSTPVVFGGGTKLTVL
notes: full-length IgG; also called Antibody Number 76
B8: ADI-45128 (antibody, V domains shown)
VH: QVQLQESGPGLVRPSQTLSLTCTVSGGAISSGDYYWSWVRQPPGKGLEWIGYIHYSGTTYNNPSLKSRVTIAVDTSKNQFSLKLSSVTAADTAVYFCGRDSDKNYFDYWGQGTLVTVSS
VL: QSVLTQPPSVSAAPGQKVTISCSGSSSNIGNNDVSWYQQLPGRAPKLLIYDNNKRPSGIPDRFSGSKSGTSATLGITGLQTGDEADYYCGAWDSSLSAHVVFGGGTKVTVL
notes: full-length IgG; also called Antibody Number 79
B9: ADI-45078 (antibody, V domains shown)
VH: EVQLVESGGGLIQPGGSLRLSCAASGFSFSSHAMTWVRQAPGKGLQWVSSIRGSDRTTNYADSVKGRFTVSRDNSKNTLYLQMNSLRAEDTAIYYCAKYYDSSGYYYFDHWGQGTLVTVSS
VL: DIRMTQSPSTLSASIGDRVTITCRASQSISDWLAWYLQKPGKAPSLLIYRASSLETGVPSRFSGRGSGTEFTLTISSLQPDDFGTYYCQQYNRDPYTFGQGTKVDIK
notes: full-length IgG; also called Antibody Number 82
B10: ADI-42223 (antibody, V domains shown)
VH: EVQLVESGGGLVQPGGSLRLSCAASGFTFSDYYMDWVRQAPGKGLEWVGGIRNKPNSYTTEYAASVKGRFTISRDDSKNSLFLQMNSLKTEDTAVYYCVRLYGDYVAYFDYWGQGTLVTVSS
VL: DIQLTQSPSSLSASVGDRVTITCRASQSISQYLNWYQQKPGKAPKLLISPASSFQSGVPSRFSGSGSGTDFTLTITSLQPEDFATYYCQQSYSTPWTFGQGTKVDIK
notes: full-length IgG; also called Antibody Number 84
B11: ADI-50535 (antibody, V domains shown)
VH: QVQLVQSGAEVKKPGASVKVSCKASGYTFTSYGISWVRQAPGQGLEWMGWISAYNGNTNYAQKLQGRVTMTTDTSTSTAYMELRSLRSDDTAVYYCARRPYYYGSRRPAGHMDVWGQGTTVTVSS
VL: NFMLTQPHSVSESPGKTVTISCTRSSGSIASNYVQWYQQRPGSSPTTVIYEDNQRPSGVPDRFSGSIDSSSNSASLTISGLKTEDEADYYCQSYDSSNVVFGGGTKVTVL
notes: full-length IgG; also called Antibody Number 78
B12: ADI-49033 (antibody, V domains shown)
VH: EVQLVESGGGLVQPGGSLRLSCAASGLIFRNYAMSWVRQAPGKGLEWVSSFSGSGGSAYYADSVKGRFTISRDNSKSTVYLQMNRLRVEDTAVYYCAKDMAVSVHRGWFDDWGQGTLVTVSS
VL: EIVMTQSPSALSASVRDRVTITCRASQSIGSDLNWYQQRPGKAPMLLIYAATGLQSGVPSRFSGSGSGTDFTLTISNLQPEDFATYYCQQSYSPPMYTFGQGTKVDIK
notes: full-length IgG; also called Antibody Number 7
B13: ADI-48899 (antibody, V domains shown)
VH: EVQLVESGGGLVQPGGSLRLSCAASGFIYTNYAMYWVRQAPGKGLEWVSAISGSGGITYYADSVKGRFTISRDNSKNTLYLQMNSLRAEDKAVYYCAKDGVTTINGWFHFEYWGQGTLVTVSS
VL: DIQMTQSPSTLSASVGDRVTITCRASQSISSWLAWYQQKPGKAPKLLIYQASSLESGVPSRFSGSESGTEFTLTISSLQPDDFATYYCQQYNSFPFTFGPGTKVEIK
notes: full-length IgG; also called Antibody Number 68
B14: ADI-49044 (antibody, V domains shown)
VH: QVQLVESGGGVVQPGRSLRLSCAASGFAFSSYGMHWVRQAPGKGLEWVAGMRFDGTKIYYADSVKGRFTISRDNSKNTLYLQMNSLRAEDTAVYFCARDLEVGAEYIYYYYGMDVWGQGTTVTVSS
VL: QPVLTQPPSASGTPGQRVTISCSGSSSNIGTNTVSWYQQLPGTAPQLLVFSRTQRPSGVPDRFSGSKSGTSASLAISGLQSDDEADYYCAAWDDSRNGWVFGGGTKLTVL
notes: full-length IgG; also called Antibody Number 8
B15: ADI-49040 (antibody, V domains shown)
VH: EVQLVESGGALVHPGGSLGLSCAASGFTFSDHYMDWVRQAPGKGLEWVGRIRNKPNSYATQYAASVKGRFTISRDDSKKSLYLQMNSLNTEDTAVYYCARVRDGEYDYWGQGTLVTVSS
VL: DIQMTQSPSTLSASVGDRVTITCRASQSISTWLAWYQLKPGKAPKLLIYKASNLQSGVPSRFSGSGSGTEFTLTISSLQPDDFATYYCQQYNSYSPWGQGTKLEIK
notes: full-length IgG; also called Antibody Number 74
B16: ADI-42189 (antibody, V domains shown)
VH: EVQLVESGGGVVQPGWSLRLSCAVSGFTFSSYAMHWVRQAPGKGLEWVAVISYDGSYKWYADSVKGRFTISRDNSKNTVYLQMNSLRAEDTAVYYCASLWFIVMTMSKNPETDYWGQGTLVTVSS
VL: DIQVTQSPSSLSASVGDRVTITCRASQGIRNDLAWYQQRPGKAPKRLIYAASSLQSGVPSRFSGSGSGTEFTLTISSLQPEDFATYYCLQHHSYPWTFGQGTKVEIK
notes: full-length IgG; also called Antibody Number 81
B17: ADI-42187 (antibody, V domains shown)
VH: EVQLLESGGGLVKPGGSLRLSCAASGFTFSSYSMNWVRQAPGKGLEWVSSISSRSSFMYYADSVKGRFTISRDNAKNSLYLQMNSLRVEDTAVYYCARDNSEVEDYGDYVLYHYYGMDVWGQGTTVTVSS
VL: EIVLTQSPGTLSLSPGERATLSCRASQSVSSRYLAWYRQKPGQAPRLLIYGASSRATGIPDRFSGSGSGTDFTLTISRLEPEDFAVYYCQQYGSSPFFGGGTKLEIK
notes: full-length IgG; also called Antibody Number 75
B18: ADI-42219 (antibody, V domains shown)
VH: QVQLVESGGGVVQPGRSLRLSCAASGFTFSSLAMHWVRQAPGKGLEWVATISYDVSNKYYADSVKGRFTISRDNSKNTLFLQMNSLRPEDTAVYYCARGYTGYDGFDYWGQGTLVTVSS
VL: QPVLTQPRSVSGSPGQSVTISCTGTSSDVGGYNYVSWYQQHPGKAPKLMISDVSKRPSGVPDRFSGSKSGNTASLTISGLQADDEADYYCCSYATNYGVVFGGGTKVTVL
notes: full-length IgG; also called Antibody Number 77
B19: ADI-46729 (antibody, V domains shown)
VH: EVQLVESGPGLVKPSQTLSLTCTVSGGSISSGSYYWSWIRQPAGKGLEWIGRIYTSGSTNYNPSLKSRVTMSVDTSKNQFSLKLSSVTAADTAVYYCARGWFGYSNYGLYYYYGMDVWGQGTTVTVSS
VL: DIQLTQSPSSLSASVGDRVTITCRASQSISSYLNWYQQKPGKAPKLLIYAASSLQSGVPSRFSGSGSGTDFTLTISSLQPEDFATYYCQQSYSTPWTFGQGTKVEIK
notes: full-length IgG; also called Antibody Number 70
B20: ADI-45148 (antibody, V domains shown)
VH: EVQLLESGGGLVQPGRSLRLSCAASGFTFDDYAMHWVRQAPGKGLEWVSGISWNSGSIGYADSVKGRFTISRDNAKNSLYLQMNSLRAEDTALYYCAKDIGDSYGSGSYYLPYGAYYGMDVWGQGTTVTVSS
VL: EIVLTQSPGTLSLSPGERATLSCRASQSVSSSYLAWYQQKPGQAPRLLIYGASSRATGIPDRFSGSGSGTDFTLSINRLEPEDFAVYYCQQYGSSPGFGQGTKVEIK
notes: full-length IgG; also called Antibody Number 72
B21: ADI-46722 (antibody, V domains shown)
VH: EVQLVESGPGLVKPSGTLSLTCAVSGGSISSSNWWSWVRQPPGKGLEWIGEIYHSESTNYNPSLKSRVTISVDKSKNQFSLKLSSVTAADTAVYYCARDFWSGSNWFDPWGQGTLVTVSS
VL: QSALIQPPSVSAAPGQKVTISCSGSSSNIGNNYVSWYQQLPGTAPKLLIYDNNKRPSGIPDRFSGSKSGTSATLGITGLQTGDEADYYCGTWDNSLGVVFGGGTQLTVL
notes: full-length IgG; also called Antibody Number 71
B22: ADI-46742 (antibody, V domains shown)
VH: QVQLQESGPGLVKPSETLSLTCTVSGASIRSYLWSWIRQPPGKELEWLGSIYHSGSTKYNPSLKSRVTISADTSKNQFSLKLNSVTAADTAVFYCARETANNWFDPWGQGTLVTVSS
VL: SYELTQPPSVSVAPGQTARIICGGNYIGGKSVHWYQQKPGQAPVLVVYNDNDRPSGIPERFSGSNSGNTATLTISRVAAGDEADYYCQVWDNSSDRRVFGGGTKLTVL
notes: full-length IgG; also called Antibody Number 86
B23: ADI-42191 (antibody, V domains shown)
VH: EVQLVESGGGLVQPGGSLRLSCAASGFTFSDHYMDWVRQAPGKGLEWVGRTRNKPNSHTTEYAASVKGRFTISRDDSKNSLYLQMNSLQTEDTAVYYCARVYGGPDDYWGQGTLVTVSS
VL: EIVMTQSPSSLSASVGDRVTITCRASQSIRSYLNWYQQKPGKAPKLLIYAASSLQSGVPLRFSGSGSGTDFTLTISSLQPEDFATYYCQQSSITPPTFGQGTKLEIK
notes: full-length IgG; also called Antibody Number 67

target: T1, recombinant YFV E protein (soluble E, sE; YFV Asibi strain) (Yellow fever virus, Asibi strain, UniProt Q6DV88 286-678); test: BLI monovalent (IgG on tip)
T1 construct: also called YFV E antigen; YFV E monomer
T1 sequence (Q6DV88 286-678): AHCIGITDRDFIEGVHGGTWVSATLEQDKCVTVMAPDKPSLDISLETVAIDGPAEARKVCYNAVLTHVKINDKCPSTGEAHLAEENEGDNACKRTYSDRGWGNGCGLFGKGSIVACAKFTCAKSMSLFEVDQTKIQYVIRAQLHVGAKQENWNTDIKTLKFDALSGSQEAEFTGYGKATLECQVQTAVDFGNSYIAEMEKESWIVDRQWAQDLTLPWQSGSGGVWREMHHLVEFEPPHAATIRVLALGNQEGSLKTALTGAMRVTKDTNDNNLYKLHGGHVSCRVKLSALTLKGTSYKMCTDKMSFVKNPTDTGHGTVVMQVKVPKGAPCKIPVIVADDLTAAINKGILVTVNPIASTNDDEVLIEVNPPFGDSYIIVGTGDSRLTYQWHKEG

First: B1
Second: B2
The Kd of the first is 37-fold lower: 0.45 nM for the first, 16.8 nM for the second. The first binds more tightly here.

Compared with B3, B4 is higher in Kd: 2.19 nM for the first, greater than 100 nM for the second. The first binds more tightly here.

Going from B5 to B6, the Kd falls from 24.1 nM to 1.05 nM (23-fold). The second binds more tightly here.

Going from B7 to B8, the Kd falls from 242 nM to 3.54 nM (68-fold).

Compared with B9, B10 is 5.7-fold lower in Kd: 5.88 nM for the first, 1.04 nM for the second. The second binds more tightly here.

First: B11
Second: B12
The Kd of the first is higher: greater than 100 nM for the first, 18 nM for the second.

Going from B13 to B14, the Kd falls from 434 nM to 1.88 nM (230-fold). The second binds more tightly here.

Going from B15 to B16, the Kd rises from 0.999 nM to 2.4 nM (2.4-fold). The first binds more tightly here.

B17 and B18 are within 1.5-fold of each other in Kd: 4.01 nM for the first, 4.05 nM for the second.

B19 and B20 cannot be ordered by Kd: greater than 100 nM for the first, greater than 100 nM for the second.

B21 and B22 cannot be ordered by Kd: greater than 100 nM for the first, greater than 100 nM for the second.

B23 gave a Kd of 2.13 nM.
